± gives the uncertainty stated by the source.
Experiment: protein stability index of a GFP-peptide fusion (yeast GPS) (PSI 1-4); higher = more stable; sorted into four equal gates, so the index is relative within each strain
Summary of the method: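 Each library plasmid carries Cherry plus GFP with a tiled 17-residue yeast protein peptide fused downstream, and the pooled library was carried in yeast. Mid-log cultures in leucine-free medium were sorted into four equal gates by GFP/Cherry ratio. Reads from Illumina sequencing of PCR-amplified plasmids from each gate were assigned to strains by barcodes. Per peptide, the protein stability index was computed as the summed products of gate read frequency and gate number.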

Row | Sequence | protein stability index (doa10∆) | protein stability index (pdr5∆) | protein stability index (san1∆) | protein stability index (ubr1∆)
1 | DEVITEGQADIDMESDV [POP7] | 3.18 ± 0.068 | 3.17 ± 0.058 | 3.33 ± 0.057 | 3.22 ± 0.048
2 | IADSTHVKRITKIAQSQ [ECM29] | 1.86 ± 0.097 | 1.71 ± 0.059 | 1.3 ± 0.12 | 1.38 ± 0.044
3 | PIAAPKKPRKPRQTKKA [PGD1] | 2.64 ± 0.11 | 3.18 ± 0.092 | 2.56 ± 0.082 | 3.09 ± 0.097
4 | VPHYNRLDSYKVIEQPI [RPL25] | 1.8 ± 0.095 | 2.21 ± 0.11 | 2.02 ± 0.11 | 2.21 ± 0.11
5 | LPAYSGEIGDFFSSDWR [POP1] | 3.04 ± 0.11 | 3.32 ± 0.089 | 3.24 ± 0.068 | 3.16 ± 0.096
6 | CVYSGLIPDGRHLVNRG [PRE10] |  | 1.82 ± 0.22 | 2.1 ± 0.14 | 
7 | IDESLFNLLILSLNKRI [YCG1] | 2.75 ± 0.072 | 2.25 ± 0.062 | 2.03 ± 0.077 | 2.15 ± 0.033
8 | LQQKQQQRFQALQQQQQ [SWI1] | 1.35 ± 0.057 | 1.53 ± 0.047 | 1.37 ± 0.083 | 1.56 ± 0.063
9 | VHVQLLINLKISPLMKS [SRB8] | 1.44 ± 0.058 | 1.59 ± 0.048 | 1.55 ± 0.091 | 1.44 ± 0.05
10 | NISRDFQSYIVSSLPGS [COR1] | 1.63 ± 0.093 | 2.14 ± 0.095 | 2.08 ± 0.098 | 1.85 ± 0.048
11 | YIDIRTNNVLRKLGLLG [MTW1] | 1.49 ± 0.053 | 1.76 ± 0.069 | 1.64 ± 0.15 | 1.5 ± 0.056
12 | MKTQRFVSNMGFDIQKS [SIR4] | 2.63 ± 0.069 | 2.24 ± 0.058 | 2.5 ± 0.083 | 2.01 ± 0.04
13 | EIYRISFQLSKIRRAAR [RPS9A] | 1.95 ± 0.043 | 2.15 ± 0.062 | 2.3 ± 0.048 | 2.29 ± 0.046
14 | SLDLIKERRSLKPEVRK [RPL24A] |  |  |  | 3.32 ± 0.22
15 | AGYTTHLMKRIQKGPVR [RPS17A] | 2.2 ± 0.11 | 2.97 ± 0.15 | 1.86 ± 0.16 | 2.57 ± 0.096
16 | VAKVDEEGRAIPGEYIT [RPS21B] | 2.5 ± 0.095 | 2.52 ± 0.12 | 2.44 ± 0.1 | 2.77 ± 0.065
17 | KSLDEQLLLLSDERAKL [LRP1] | 2.73 ± 0.095 | 3.2 ± 0.1 | 2.84 ± 0.046 | 2.91 ± 0.088
18 | QQQRRQLTPQQQQLVNQ [GAL11] | 2.72 ± 0.049 | 3 ± 0.05 | 2.8 ± 0.038 | 3 ± 0.049
19 | NNSAPNNTNNANSSITP [YJL041W/NSP1] | 3.01 ± 0.089 | 2.97 ± 0.11 | 2.73 ± 0.11 | 2.72 ± 0.11
20 | KDLKDDSIYTKPVKVAL [YJL039C/NUP192] | 2.81 ± 0.049 | 2.98 ± 0.045 | 2.73 ± 0.053 | 3.02 ± 0.04
21 | EDDTQIVTGNLVLDLLT [IRR1] | 2.12 ± 0.055 | 2.83 ± 0.047 | 2.26 ± 0.085 | 2.26 ± 0.037
22 | AIIGLKSGTSHDAIFSI [SNF12] | 2.56 ± 0.11 | 2.65 ± 0.082 | 2.5 ± 0.069 | 2.96 ± 0.17
23 | VYSFDPVGSYEREQCRA [PRE7] | 3.62 ± 0.23 | 3.47 ± 0.23 | 3.27 ± 0.13 | 3.29 ± 0.091
24 | GSNNGFGNKPAGSTGFS [YGR119C/NUP57] | 1.65 ± 0.076 | 1.24 ± 0.083 | 1.27 ± 0.15 | 2.22 ± 0.16
25 | DTQTFSVLLQQLLTPGS [YGL172W/NUP49] | 1.31 ± 0.13 | 1.43 ± 0.095 | 1.36 ± 0.1 | 1.48 ± 0.058
26 | EFLEDTSRTIVRNVKGP [RPS28A] |  |  | 3.15 ± 0.29 | 3.03 ± 0.16
27 | QTKSNGTAGGNTFGSSS [YJL041W/NSP1] | 3.28 ± 0.063 | 2.84 ± 0.064 | 2.96 ± 0.055 | 3.22 ± 0.053
28 | SSNKDLEDEKMKFQESL [SMC4] |  | 2.08 ± 0.26 |  | 

Reference: the supplement of paper PMC9732359
